For assay [1], the target named is T1, Tau-derived peptide Tau401-418, not phosphorylated (T4.6) (human).
T1 construct: it is called the non-phosphorylated version of the same peptide as T4.5 (Tau401-418); also called corresponding non-phosphorylated Tau peptide
T1 peptide: GDTSPRHLSNVSSTGSID
In words: direct ELISA on plate-coated peptide (10 ug/mL), AP-conjugated anti-human IgG, O.D. at 405 nm. Here is the method: Binding of hACl-36-2B6-Ab1 and hACl-36-3A8-Ab1 to T4 Peptides by ELISA 1.1. Method 1.1.1 Phospho-Tau Binding Assay To test the binding of the antibody to pTau, an ELISA assay was used. Nunc MaxiSorp 96-well plates (Nunc, Denmark) were coated with 10 µg/mL of the Tau-derived peptide Tau401-418, phosphorylated (T4.5) or not (T4.6) on serine 409. Coating was done overnight in phosphate-buffered saline (PBS; Sigma-Aldrich, Switzerland) at 4° C. Plates were washed thoroughly with 0.05% Tween20/PBS and then blocked with 1% bovine serum albumin (BSA; Sigma-Aldrich) in 0.05% Tween20/PBS for 1 hr at 37° C. The supernatant containing the antibody being tested was then added in 8 two-fold dilutions, starting at 0.5 µg/mL, and incubated for 2 hr at 37° C. Plates were then washed as described previously, and an alkaline phosphatase (AP) conjugated goat anti-human IgG (Jackson ImmunoResearch Laboratories, England) was added at 1/2,000 dilution in 0.05% Tween20/PBS for 2 hr at 37° C. After washing, plates were incubated with p-nitrophenyl phosphate disodium hexahydrate (pNPP; Sigma-Aldrich, Switzerland) phosphatase substrate solution, and read at 405 nm following 1 hr incubation using a microplate reader (Tecan, Switzerland). Results are expressed as optical density (O.D.). […]

The target in assay [2] is Tau-derived peptide Tau401-418, phosphorylated (T4.5) (human). In words: SPR (Biacore T100), antibody captured via Protein G on CM7 chip, peptide T4.5 as analyte 50-800 nM, single-cycle kinetics, 1:1 Langmuir fit. Background: SPR reads the build-up and loss of mass on a sensor chip optically.
Sequence of Tau-derived peptide Tau401-418, phosphorylated (T4.5) (human) (peptide, as listed by the source): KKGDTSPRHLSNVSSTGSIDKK

B1: humanized antibody hACl-36-2B6-Ab1 (IgG4) (antibody, V domains shown)
VH: QVQLVQSGAEVKKPGSSVKVSCKASGYTFTDYYMNWVRQAPGQGLEWIGDINPNRGGTTYNQKFKGRVTITVDKSTSTAYMELSSLRSEDTAVYYCASYYAVGYWGQGTTVTVSS
VL: DIVMTQTPLSLPVTPGEPASISCRSSQSLVHSHGKTYLHWYLQKPGQSPQLLIYKVSNRFSGVPDRFSGSGSGTDFTLKISRVEAEDVGVYFCSQTAHFPYTFGGGTKVEIKR
notes: Humanized IgG4, kappa; also called 2B6A10C11
A word on the Kd: it is the equilibrium constant for the complex coming apart. A higher Kd goes with a looser complex. For orientation: koff means the rate constant with which the complex falls apart. A low value points to a long-lived complex. As a reminder, the kon is the rate constant with which the complex forms. Low readings indicate slow association, high ones fast association. With B1, in assay [1], the binding result was “no binding (tested: 0.5 ug/mL)”. In assay [2], this molecule gave a Kd of 67 nM, a koff of 0.0036 s⁻¹ and an association rate constant (kon) of 54000 M⁻¹ s⁻¹.

B2: humanized antibody hACl-36-3A8-Ab1 (IgG4) (antibody, V domains shown)
VH: QVQLVQSGAEVKKPGSSVKVSCKASGYTFTDYYMNWVRQAPGQGLEWIGDINPNRGGTTYNQKFKGRVTITVDKSTSTAYMELSSLRSEDTAVYYCASYYAVGYWGQGTTVTVSS
VL: DIVMTQTPLSLPVTPGEPASISCRSSQRLVHSHGKTYLHWYLQKPGQSPQLLIYKVSNRFSGVPDRFSGSGSGTDFTLKISRVEAEDVGVYFCSQTAHFPYTFGGGTKVEIKR
notes: Humanized IgG4, kappa; Tested as a supernatant containing the antibody; also called 3A8A12G7
Turning to B2, the binding result in assay [1] is “no binding (tested: 0.5 ug/mL)”.

Source of the values: patent US9657091 (AC IMMUNE S A, dated 2017).
